Measured values: patent US20200405841A1 (GlaxoSmithKline, published 2020)

Assays:
[1] = target: T1, recombinant soluble UspA2 (SEQ ID NO: 53) (Moraxella catarrhalis); experiment: negative-stain electron microscopy of the complex
T1 construct: also called MC-009; soluble UspA2 recombinant protein
T1 chain: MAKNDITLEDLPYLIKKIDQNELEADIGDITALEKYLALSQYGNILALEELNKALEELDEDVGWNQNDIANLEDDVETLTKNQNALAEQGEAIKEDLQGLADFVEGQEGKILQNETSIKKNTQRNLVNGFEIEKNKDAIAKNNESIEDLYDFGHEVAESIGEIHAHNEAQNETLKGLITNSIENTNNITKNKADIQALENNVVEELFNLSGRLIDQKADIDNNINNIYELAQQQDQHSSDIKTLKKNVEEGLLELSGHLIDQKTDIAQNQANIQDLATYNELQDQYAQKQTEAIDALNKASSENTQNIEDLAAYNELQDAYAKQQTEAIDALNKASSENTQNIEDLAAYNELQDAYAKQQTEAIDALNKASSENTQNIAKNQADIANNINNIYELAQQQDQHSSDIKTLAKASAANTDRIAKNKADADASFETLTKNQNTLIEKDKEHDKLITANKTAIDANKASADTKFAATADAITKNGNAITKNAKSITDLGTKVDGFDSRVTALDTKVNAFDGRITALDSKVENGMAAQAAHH

[2] = target: UspA2H of Moraxella catarrhalis UK isolate 296 (AERIS study) (Moraxella catarrhalis); experiment: cell-based or functional assay
[3] = target: UspA2H of Moraxella catarrhalis UK isolate 193 (AERIS study) (Moraxella catarrhalis); experiment: cell-based or functional assay
[4] = target: T2, UspA2 of Moraxella catarrhalis strain ATCC 25238 (Moraxella catarrhalis); experiment: cell-based or functional assay
T2 chain: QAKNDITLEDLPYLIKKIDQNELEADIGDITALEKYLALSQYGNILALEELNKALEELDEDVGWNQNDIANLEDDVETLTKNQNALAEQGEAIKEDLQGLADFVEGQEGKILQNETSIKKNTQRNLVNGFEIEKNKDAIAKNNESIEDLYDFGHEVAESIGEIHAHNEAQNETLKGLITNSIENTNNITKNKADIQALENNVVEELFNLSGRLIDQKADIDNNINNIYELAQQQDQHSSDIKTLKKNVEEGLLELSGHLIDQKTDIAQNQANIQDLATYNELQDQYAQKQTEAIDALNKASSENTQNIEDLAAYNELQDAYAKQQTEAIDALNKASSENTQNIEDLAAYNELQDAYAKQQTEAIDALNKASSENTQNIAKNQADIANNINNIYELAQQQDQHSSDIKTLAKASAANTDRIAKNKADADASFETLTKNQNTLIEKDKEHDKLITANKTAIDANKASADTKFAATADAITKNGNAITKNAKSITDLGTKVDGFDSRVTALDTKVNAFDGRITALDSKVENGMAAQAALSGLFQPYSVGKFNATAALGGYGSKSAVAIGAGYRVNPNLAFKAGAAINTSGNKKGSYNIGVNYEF

[5] = target: UspA2 of Moraxella catarrhalis Denmark isolate BBH18 (Moraxella catarrhalis); experiment: cell-based or functional assay
[6] = target: UspA2H of Moraxella catarrhalis UK isolate 415 (AERIS study) (Moraxella catarrhalis); experiment: cell-based or functional assay
[7] = target: UspA2H of Moraxella catarrhalis UK isolate 268 (AERIS study) (Moraxella catarrhalis); experiment: cell-based or functional assay
[8] = target: UspA1 of Moraxella catarrhalis strain ATCC 43617 (Moraxella catarrhalis); experiment: cell-based or functional assay
[9] = target: T3, UspA2 of Moraxella catarrhalis Dutch isolate F10 (Moraxella catarrhalis); experiment: cell-based or functional assay
T3 chain: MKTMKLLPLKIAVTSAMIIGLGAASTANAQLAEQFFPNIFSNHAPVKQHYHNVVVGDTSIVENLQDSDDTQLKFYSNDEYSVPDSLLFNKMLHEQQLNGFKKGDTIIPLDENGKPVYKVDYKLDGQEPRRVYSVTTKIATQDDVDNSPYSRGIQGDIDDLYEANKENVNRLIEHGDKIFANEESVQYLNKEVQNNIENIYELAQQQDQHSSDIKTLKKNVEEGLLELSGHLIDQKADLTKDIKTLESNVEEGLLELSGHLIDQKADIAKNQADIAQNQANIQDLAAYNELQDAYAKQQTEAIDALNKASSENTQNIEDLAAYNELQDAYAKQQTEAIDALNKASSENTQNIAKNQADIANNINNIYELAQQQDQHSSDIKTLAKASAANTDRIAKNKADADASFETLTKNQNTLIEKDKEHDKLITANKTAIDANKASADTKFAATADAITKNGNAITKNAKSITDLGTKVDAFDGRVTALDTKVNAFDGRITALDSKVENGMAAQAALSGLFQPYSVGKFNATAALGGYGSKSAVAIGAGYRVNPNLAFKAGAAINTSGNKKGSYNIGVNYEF

[10] = target: UspA2H of Moraxella catarrhalis UK isolate 240 (AERIS study) (Moraxella catarrhalis); experiment: cell-based or functional assay

B1: FHUSPA2/10 monoclonal antibody (antibody, V domains shown)
VH: EVQLQQSGTVLARPGASVKMSCKASGYSFTSYWMHWVKQRPGQGLEWIGAIYPGNSDTSYNQKFKGKAKLTAVTSASTAYMELSNLTNEDSAVYSCTLLRFLDAYWGQGTLVTVSA
VL: QIVLSQSPAILSASPGEKVTMTCRASSSVSYMHWYQQKPGSSPKPWIYATSNLASGVPARFSGSGSGTSYSLTISRVEAEDAATYYCQQWSSNPPTFGGGSKLEIK
notes: Hybridoma-secreted mouse monoclonal antibody; Isotype confirmed as IgG2a, light chain of kappa class; also called FHUSPA2/10 mAb; anti-UspA2 monoclonal antibody FHUSPA2/10
binding result [1]: binds
bactericidal activity (mid-point titer) [2]: 114000 reciprocal dilution inducing 50% of killing
bactericidal activity (mid-point titer) [3]: > 640000 reciprocal dilution inducing 50% of killing
bactericidal activity (mid-point titer) [4]: 1.88e+06 reciprocal dilution inducing 50% of killing
bactericidal activity (mid-point titer) [5]: 386000 reciprocal dilution inducing 50% of killing
bactericidal activity (mid-point titer) [6]: 256000 reciprocal dilution inducing 50% of killing
bactericidal activity (mid-point titer) [7]: > 384000 reciprocal dilution inducing 50% of killing
bactericidal activity (mid-point titer) [8]: < 100 reciprocal dilution inducing 50% of killing
bactericidal activity (mid-point titer) [9]: 528000 reciprocal dilution inducing 50% of killing
bactericidal activity (mid-point titer) [10]: > 25600 reciprocal dilution inducing 50% of killing
